Laboratory results published in patent EP3574020B1.
Each block holds one binder with its values, some of them ahead of it.

Tests used:
[1] = biological target: A-beta42 Oligomer (synthetic) (human); experiment: SPR; purified antibody immobilized, A-beta injected
A-beta42 Monomer (human) [2] = experiment: as above
A-beta42 Monomer (human) [3] = experiment: SPR direct binding; hybridoma supernatant over immobilized A-beta42 monomer
[4] = biological target: A-beta42 Oligomer (synthetic) (human); experiment: SPR direct binding; hybridoma supernatant over immobilized A-beta42 oligomer
[5] = biological target: commercially-prepared stable A-beta42 Oligomers (SynAging) (human); experiment: SPR; antibody covalently immobilized, stable A-beta42 oligomers at 1 microM
Chain of commercially-prepared stable A-beta42 Oligomers (SynAging) (human) (peptide, as listed by the source): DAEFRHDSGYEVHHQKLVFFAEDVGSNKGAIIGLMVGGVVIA

[6] = biological target: T1, cyclo(CGHHQKG) cyclic peptide, conjugated to BSA; experiment: SPR direct binding; hybridoma supernatant over immobilized BSA-conjugated peptide
T1 sequence (peptide, cyclized peptide, cyclo(CGHHQKG); conjugated to BSA): CGHHQKG

[7] = biological target: T2, linear CGHHQKG peptide, conjugated to BSA; experiment: as above
T2 sequence (peptide, conjugated to BSA): CGHHQKG

[8] = biological target: T1, cyclo(CGHHQKG) cyclic peptide, conjugated to BSA; experiment: MAAS-2 SPR; antibody immobilized, cyclopeptide-BSA at pH 6.5, 7.5 or 8.0
[9] = biological target: A-beta oligomers in the low molecular weight (LMW, ~8-70 kDa) fraction of soluble human AD brain extract (human) (UniProt P05067); experiment: SPR; antibody immobilized, SEC fraction at 100ug/ml
Chain of A-beta oligomers in the low molecular weight (LMW, ~8-70 kDa) fraction of soluble human AD brain extract (human) (P05067 672-713): as the sequence (peptide, as listed by the source) above

Chain of A-beta42 Oligomer (synthetic) (human) (peptide, as listed by the source): as above
Chain of A-beta42 Monomer (human) (peptide, as listed by the source): as above

BRU [8]: 400 BRU
B3: Recombinant 301-17 IgG1 (murine IgG1 backbone) (antibody, V domains shown)
VH: QVQLQQPGAELVKPGASVKMSCKASGYSFTSYWINWVKQRPGQGLEWIGDVHPGRGVSTYNAKFKSKATLTLDTSSSTAYMQLSSLTSEDSAVYYCSRSHGNTYWFFDVWGAGTTVTVSS
VL: DVLMTQTPLSLPVSLGDQASISCRSSQSIVHSNGNTYLEWYLQKPGQSPKLLIYKVSNRFSGVPDRFSGSGSGTDFTLKISRVEAEDLGVYYCFQGSHVPFTFGSGTKLEIKR

fold binding response against aducanumab [9]: 1.5 to 2 fold
B4: Humanized antibody of 301-17 (VH2 Vk5), human IgG4 (S241P hinge variant) / kappa (antibody, V domains shown)
VH: QVQLVQSGAEVKKPGASVKMSCKASGYSFTSYWINWVKQRPGQGLEWIGDVHPGRGVSTYNAKFKSRATLTLDTSISTAYMELSSLRSEDTAVYYCSRSHGNTYWFFDVWGQGTTVTVSS
VL: DVLMTQSPLSLPVTLGQPASISCRSSQSIVHSNGNTYLEWYQQRPGQSPRLLIYKVSNRFSGVPDRFSGSGSGTDFTLKISRVEAEDVGVYYCFQGSHVPFTFGQGTKLEIKR

Further lines, the binder ahead of its results:

B1: 301-17 mouse monoclonal antibody, hybridoma-purified IgG3 (antibody, V domains shown)
VH: QVQLQQPGAELVKPGASVKMSCKASGYSFTSYWINWVKQRPGQGLEWIGDVHPGRGVSTYNAKFKSKATLTLDTSSSTAYMQLSSLTSEDSAVYYCSRSHGNTYWFFDVWGAGTTVTVSSATTTAPS
VL: DVLMTQTPLSLPVSLGDQASISCRSSQSIVHSNGNTYLEWYLQKPGQSPKLLIYKVSNRFSGVPDRFSGSGSGTDFTLKISRVEAEDLGVYYCFQGSHVPFTFGSGTKLEIKRADA
RU [1]: 148 RU

B2: 301-11 mouse monoclonal antibody (IgG3, kappa) (antibody, V domains shown)
VH: EVQLVESGGGLVKPGGSLKLSCAASGFTFSDYYMYWVRQTPEKRLEWVATISDGGSYTSYPDSVKGRFTISRDNAKNNLYLQMSSLRSEDTAMYYCARDYYGSSSYTSGFAYWGQGTLVTVSA
VL: DIVMSQSPSSLAVSTGEKVTMSCKSSQSLLNSRTRKNYLAWYQQKPGQSPKLLIYWASTRESGVPDRFTGSGSGTDFTLTISSVQAEDLAVYYCKQSYNLYTFGGGTKLEIK
RU (A-beta42 Monomer (human) [2]): -14.1 RU | RU [1]: -2.8 RU | RU (A-beta42 Monomer (human) [3]): 21.6 RU | RU [4]: 75.3 RU | binding response units (BRU), average [5]: 19.3 BRU | RU [6]: 488 RU | RU [7]: 210 RU
